Drawing on patent US20250092426, “CAS ENDONUCLEASES AND RELATED METHODS” (Flagship Pioneering Innovations VII, LLC, published 2025), this text covers activity for 1 molecule.

In the series the target is T1, CasEnd-1 (synthetic construct).
T1 chain: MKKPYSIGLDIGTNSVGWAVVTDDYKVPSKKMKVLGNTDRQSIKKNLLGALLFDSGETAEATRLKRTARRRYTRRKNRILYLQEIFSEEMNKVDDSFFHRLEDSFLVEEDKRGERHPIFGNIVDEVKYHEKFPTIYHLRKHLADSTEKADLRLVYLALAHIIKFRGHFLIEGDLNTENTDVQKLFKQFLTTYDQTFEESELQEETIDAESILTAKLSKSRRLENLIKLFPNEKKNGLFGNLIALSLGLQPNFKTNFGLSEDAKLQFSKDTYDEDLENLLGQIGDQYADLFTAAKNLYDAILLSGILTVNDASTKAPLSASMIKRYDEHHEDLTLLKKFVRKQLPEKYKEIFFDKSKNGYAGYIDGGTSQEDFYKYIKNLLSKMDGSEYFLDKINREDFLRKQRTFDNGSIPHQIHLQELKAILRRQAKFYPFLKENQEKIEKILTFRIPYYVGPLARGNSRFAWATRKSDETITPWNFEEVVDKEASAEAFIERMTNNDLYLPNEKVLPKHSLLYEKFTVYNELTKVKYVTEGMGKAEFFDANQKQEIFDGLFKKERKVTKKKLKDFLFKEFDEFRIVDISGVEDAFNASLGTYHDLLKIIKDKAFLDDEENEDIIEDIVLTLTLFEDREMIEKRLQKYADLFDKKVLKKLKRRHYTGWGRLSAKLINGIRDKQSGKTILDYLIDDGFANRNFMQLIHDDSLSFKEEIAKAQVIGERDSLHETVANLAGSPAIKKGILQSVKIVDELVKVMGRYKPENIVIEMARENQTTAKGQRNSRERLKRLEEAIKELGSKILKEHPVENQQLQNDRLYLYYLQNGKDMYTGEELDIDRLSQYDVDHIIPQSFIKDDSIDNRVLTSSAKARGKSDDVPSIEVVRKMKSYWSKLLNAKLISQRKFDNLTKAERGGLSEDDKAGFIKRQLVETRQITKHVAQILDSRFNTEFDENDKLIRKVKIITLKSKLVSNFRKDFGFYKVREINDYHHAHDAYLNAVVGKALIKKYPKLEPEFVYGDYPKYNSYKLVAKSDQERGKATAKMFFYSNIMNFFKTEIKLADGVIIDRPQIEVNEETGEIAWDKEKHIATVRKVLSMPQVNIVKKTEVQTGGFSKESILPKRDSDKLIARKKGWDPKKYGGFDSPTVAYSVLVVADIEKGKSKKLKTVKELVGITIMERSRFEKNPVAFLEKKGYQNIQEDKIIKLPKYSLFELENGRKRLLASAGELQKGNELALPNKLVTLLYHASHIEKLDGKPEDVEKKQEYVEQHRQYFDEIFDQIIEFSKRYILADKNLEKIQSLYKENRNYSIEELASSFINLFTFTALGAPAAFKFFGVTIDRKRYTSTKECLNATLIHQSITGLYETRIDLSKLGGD
Nature of the series: cell_activity; +++; HEK293T; PAM not stated. An outline of the steps: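 BFP-to-GFP conversion via reverse transcriptase fusion with each Cas endonuclease plus template RNA: 200 ng of each plasmid nucleofected into 250,000 BFP-expressing HEK293T cells (program DS-150). Percent GFP+ cells by flow cytometry at day 4 measured editing.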

B1: BFP-to-GFP template RNA ; BFP reporter protospacer (ssRNA ; dsDNA)
RNA: GCCGAAGCACUGCACGCCGUGUUUUAGAGCUAGAAAUAGCAAGUUAAAAUAAGGCUAGUCCGUUAUCAACUUGAAAAAGUGGCACCGAGUCGGUGCACCCUGACGUACGGCGUGCAGUGCUU
DNA 1: GCCGAAGCACTGCACGCCGT
DNA 2: ACGGCGTGCAGTGCTTCGGC
As for B1, the activity was ≥ 100 % of reference.
